Test results: US20140087995A1 (published 2014)
Numbered stars: 1 amine (or outer) side, 2 acyl side, 3 side chain; on linkers, the order of the positions; unused ones are H or OH. Bridge positions count the residues as written; N and C are the ends. Side chains are listed from the residue outwards. Ends that are not written are not given here. * marks the point of attachment. C20 diacid = O=C(O)CCCCCCCCCCCCCCCCCCC(=O)*; γGlu = O=C(O)[C@H](CCC(=O)[*:2])N[*:1]; AEEA = NCCOCCOCC(=O)O

T1: rat calcitonin receptor (rat, UniProt P32214 25-516)
T1 construct: whole, on cells; Used as membranes prepared from BHK tk'ts 13 cells transiently transfected with the rat calcitonin receptor (Assay VIII); also called rCTR; rat calcitonin (a) receptor
T1 sequence (looked up): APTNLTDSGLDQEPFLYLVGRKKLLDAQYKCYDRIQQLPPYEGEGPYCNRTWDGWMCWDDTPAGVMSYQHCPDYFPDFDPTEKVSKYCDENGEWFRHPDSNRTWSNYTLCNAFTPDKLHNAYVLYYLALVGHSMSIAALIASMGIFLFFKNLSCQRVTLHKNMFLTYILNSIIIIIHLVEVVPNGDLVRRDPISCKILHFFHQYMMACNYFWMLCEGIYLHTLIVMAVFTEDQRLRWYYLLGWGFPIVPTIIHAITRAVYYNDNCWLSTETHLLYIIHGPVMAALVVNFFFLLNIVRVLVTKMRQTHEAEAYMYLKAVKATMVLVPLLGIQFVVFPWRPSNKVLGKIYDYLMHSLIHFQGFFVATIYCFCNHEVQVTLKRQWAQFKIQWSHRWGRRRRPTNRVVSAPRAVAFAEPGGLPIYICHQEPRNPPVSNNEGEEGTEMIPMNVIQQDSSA

T2: human calcitonin receptor (human, UniProt P30988 25-474)
T2 construct: whole, on cells; Used as membranes prepared from a BHK tk'ts 13 cell line stably transfected with the human calcitonin receptor (Assay VII); also called hCTR; hCT
T2 sequence (looked up): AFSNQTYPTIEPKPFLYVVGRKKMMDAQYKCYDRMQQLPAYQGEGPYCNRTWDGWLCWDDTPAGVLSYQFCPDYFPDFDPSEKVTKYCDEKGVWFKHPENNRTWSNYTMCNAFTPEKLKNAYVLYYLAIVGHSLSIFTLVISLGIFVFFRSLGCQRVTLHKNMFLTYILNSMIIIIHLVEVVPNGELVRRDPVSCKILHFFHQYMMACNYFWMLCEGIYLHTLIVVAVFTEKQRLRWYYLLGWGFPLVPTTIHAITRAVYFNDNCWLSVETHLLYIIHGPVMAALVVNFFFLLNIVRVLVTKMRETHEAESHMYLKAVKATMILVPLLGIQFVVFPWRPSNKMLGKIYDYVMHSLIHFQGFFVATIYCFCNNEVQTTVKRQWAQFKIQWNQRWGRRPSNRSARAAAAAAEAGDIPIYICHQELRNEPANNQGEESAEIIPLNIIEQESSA

T3: rat amylin receptor (rat calcitonin receptor + rat RAMP 3) (rat, UniProt P32214 25-516; Q9JJ73 23-147)
T3 construct: whole, on cells; Used as membranes prepared from BHK tk'ts 13 cells transiently transfected with rat calcitonin receptor and rat RAMP 3 (Assay VI); also called rAmylin-R; rat amylin 3(a) receptor
T3 sequence (looked up) 1: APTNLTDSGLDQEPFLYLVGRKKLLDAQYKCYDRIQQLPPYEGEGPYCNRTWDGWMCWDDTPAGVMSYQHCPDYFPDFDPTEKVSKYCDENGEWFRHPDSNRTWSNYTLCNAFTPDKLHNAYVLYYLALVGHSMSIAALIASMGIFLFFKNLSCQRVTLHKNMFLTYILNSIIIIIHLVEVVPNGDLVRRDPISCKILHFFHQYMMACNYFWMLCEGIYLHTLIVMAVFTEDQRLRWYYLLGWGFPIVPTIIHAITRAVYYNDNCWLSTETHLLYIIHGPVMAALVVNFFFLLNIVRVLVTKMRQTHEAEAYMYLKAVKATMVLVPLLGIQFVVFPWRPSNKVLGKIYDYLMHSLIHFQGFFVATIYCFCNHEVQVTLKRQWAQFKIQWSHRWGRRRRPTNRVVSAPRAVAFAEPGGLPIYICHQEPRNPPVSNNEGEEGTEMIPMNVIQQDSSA
T3 sequence (looked up) 2: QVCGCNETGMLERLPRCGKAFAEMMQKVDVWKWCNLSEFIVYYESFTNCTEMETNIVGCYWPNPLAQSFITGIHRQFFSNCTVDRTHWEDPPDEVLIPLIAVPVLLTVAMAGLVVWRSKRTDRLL

T4: human calcitonin receptor (human, UniProt P30988 25-474)
T4 construct: whole, on cells; Used as membranes prepared from the transfected cells (Assay VII); also called hCTR; hCT
T4 sequence (looked up): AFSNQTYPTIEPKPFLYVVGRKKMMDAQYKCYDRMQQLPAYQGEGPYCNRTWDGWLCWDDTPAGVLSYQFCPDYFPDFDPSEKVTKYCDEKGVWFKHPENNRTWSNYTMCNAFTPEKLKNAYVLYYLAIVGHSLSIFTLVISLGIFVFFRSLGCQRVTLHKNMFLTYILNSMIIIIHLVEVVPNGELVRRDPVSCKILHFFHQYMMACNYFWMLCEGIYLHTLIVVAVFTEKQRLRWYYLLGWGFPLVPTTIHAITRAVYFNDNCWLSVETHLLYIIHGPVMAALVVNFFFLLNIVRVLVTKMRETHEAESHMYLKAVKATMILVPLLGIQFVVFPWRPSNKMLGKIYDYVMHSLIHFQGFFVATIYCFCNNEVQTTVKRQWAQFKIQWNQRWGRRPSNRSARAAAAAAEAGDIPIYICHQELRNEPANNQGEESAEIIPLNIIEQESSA


Legend:
[1] = target: T1, rat calcitonin receptor; test: IC50 on rat CTR divided by IC50 on rat amylin receptor (Assays VIII/VI)
[2] = target: T2, human calcitonin receptor; test: IC50 on human CTR divided by IC50 on human amylin receptor (Assays VII/V)
Method: (§1) The resulting pellet was resuspended, homogenized and centrifuged (20.000 rpm, 15 min) in a buffer containing 20 mM Na-HEPES and 0.1 mM EDTA (pH 7.4, buffer 2). The resulting pellet was resuspended in buffer 2 and protein concentration was measured (BCA protein Assay, Pierce). The homogenate was kept cold during the whole procedure. The membranes were kept at −80° C. until use. The assay was performed in a 384 well Optiplate (PerkinElmer) in a total volume of 40 ul. Membranes were mixed with SPA beads. Final concentration of membranes 35 ng/μL final and SPA beads was 0.05 mg/well. Test-compounds were dissolved in DMSO and further diluted in assay buffer (50 mM Hepes, pH 7.4, 1 mM CaCl2, 5 mM MgCl₂, 0.1% OA and 0.02% Tween20). […] The final mixture was incubated with shaking at 400 rpm for 120 min at 25° C. prior to centrifugation (1500 rpm, 10 min). Samples were analyzed on TopCounter™ (Packard). The IC₅₀ was calculated using (one site binding competition analysis) GraphPad Prism5 as a measure of receptor affinity.
(§2) Membranes were prepared in the following way; the cells were rinsed with PBS and incubated with Versene for approximately 5 min before harvesting. The cells were flushed with PBS and the cell-suspension was centrifuged for 5 min at 1000 rpm. Cells were homogenized (Ultrathurrax) in a buffer containing 20 mM Na-HEPES and 10 mM EDTA (pH 7.4) and centrifuged at 20.000 rpm for 15 min. The resulting pellet was resuspended, homogenized and centrifuged (20.000 rpm, 15 min) in a buffer containing 20 mM Na-HEPES and 0.1 mM EDTA (pH 7.4, buffer 2). The resulting pellet was resuspended in buffer 2 and protein concentration was measured (BCA protein Assay, Pierce). The homogenate was kept cold during the whole procedure. The membranes were kept at −80° C. until use. Assay was performed in a 384 well Optiplate (PerkinElmer) in a total volume of 40 ul. Membranes were mixed with SPA beads.

[3] = target: T1, rat calcitonin receptor; test: SPA competition with 125I-calcitonin, membranes of BHK cells with rat CTR (Assay VIII)
[4] = target: T3, rat amylin receptor (rat calcitonin …); test: SPA competition with 125I-rat amylin, membranes of BHK cells with rat CTR + rat RAMP3 (Assay VI)
Method: The binding assay was performed using scintillation proximity assay (SPA) beads (RPNQ0001) from PerkinElmer and cell membranes from the Amylin 3(a)/CRE-luc cells (as described in Assay (II)) were used. Membranes were prepared in the following way; the cells were rinsed with PBS and incubated with Versene for approximately 5 min before harvesting. The cells were flushed with PBS and the cell-suspension was centrifuged for 5 min at 1000 rpm. Cells were homogenized (ultrathurrax) in a buffer containing 20 mM Na-HEPES and 10 mM EDTA (pH 7.4) and centrifuged at 20.000 rpm for 15 min. The resulting pellet was resuspended, homogenized and centrifuged (20.000 rpm, 15 min) in a buffer containing 20 mM Na-HEPES and 0.1 mM EDTA (pH 7.4, buffer 2). The resulting pellet was resuspended in buffer 2 and protein concentration was measured (BCA protein Assay, Pierce). The homogenate was kept cold during the whole procedure. The membranes were kept at −80° C. until use. The assay was performed in a 384 well Optiplate (PerkinElmer) in a total volume of 40 ul. Membranes were mixed with SPA beads. Final concentration of membranes 35 ng/μL final and SPA beads was 0.05 mg/well. Test-compounds were dissolved in DMSO and further diluted in assay buffer (50 mM Hepes, pH 7.4, 1 mM CaCl2, 5 mM MgCl₂, 0.1% OA and 0.02% Tween20). […] The final mixture was incubated with shaking at 400 rpm for 120 min at 25° C. prior to centrifugation (1500 rpm, 10 min). Samples were analyzed on TopCounter™ (Packard). The IC₅₀ was calculated using (one site binding competition analysis) GraphPad Prism5 as a measure of receptor affinity.
Cells were grown in DMEM with 10% FBS and 1% Pen/Strep. Approximately 48 hours after transfection, the cells were harvested and membranes were prepared.

[5] = target: T4, human calcitonin receptor; test: ratio IC50 human calcitonin receptor / IC50 human amylin receptor (Assays VII and V)
Method: as §1, §2

Row | Ratio rCT/rAmylin binding [1] | Ratio hCT/hAmylin binding [2] | IC50 [3] | IC50 [4] | Ratio hCT/hAmylin binding [5] | Binder
1 | 259 | 247 | 221 nM | 0.851 nM | – | K([AEEA-γGlu-C20 diacid])CNTATCATQRLAAFLRHSSPNFGAIPSSTPVGSNTY-NH2 (disulfide 2-7; N-terminus assumed; SMILES CC[C@H](C)[C@H](NC(=O)[C@H](C)NC(=O)CNC(=O)[C@H](Cc1ccccc1)NC(=O)[C@H](CC(N)=O)NC(=O)[C@@H]1CCCN1C(=O)[C@H](CO)NC(=O)[C@H](CO)NC(=O)[C@H](Cc1c[nH]cn1)NC(=O)[C@H](CCCNC(=N)N)NC(=O)[C@H](CC(C)C)NC(=O)[C@H](Cc1ccccc1)NC(=O)[C@H](C)NC(=O)[C@H](C)NC(=O)[C@H](CC(C)C)NC(=O)[C@H](CCCNC(=N)N)NC(=O)[C@H](CCC(N)=O)NC(=O)[C@@H](NC(=O)[C@H](C)NC(=O)[C@@H]1CSSC[C@H](NC(=O)[C@@H](N)CCCCNC(=O)COCCOCCNC(=O)CC[C@H](NC(=O)CCCCCCCCCCCCCCCCCCC(=O)O)C(=O)O)C(=O)N[C@@H](CC(N)=O)C(=O)N[C@@H]([C@@H](C)O)C(=O)N[C@@H](C)C(=O)N[C@@H]([C@@H](C)O)C(=O)N1)[C@@H](C)O)C(=O)N1CCC[C@H]1C(=O)N[C@@H](CO)C(=O)N[C@@H](CO)C(=O)N[C@H](C(=O)N1CCC[C@H]1C(=O)N[C@H](C(=O)NCC(=O)N[C@@H](CO)C(=O)N[C@@H](CC(N)=O)C(=O)N[C@H](C(=O)N[C@@H](Cc1ccc(O)cc1)C(N)=O)[C@@H](C)O)C(C)C)[C@@H](C)O, Analogue of human amylin; also called compound 72)
2 | – | – | – | – | 26 | {C20 diacid-γGlu-γGlu}-KCNTATCATQRLAEFLRHSSPNFGAIPSSTNVGSNTY-NH2 (disulfide 2-7; SMILES CC[C@H](C)[C@H](NC(=O)[C@H](C)NC(=O)CNC(=O)[C@H](Cc1ccccc1)NC(=O)[C@H](CC(N)=O)NC(=O)[C@@H]1CCCN1C(=O)[C@H](CO)NC(=O)[C@H](CO)NC(=O)[C@H](Cc1c[nH]cn1)NC(=O)[C@H](CCCNC(=N)N)NC(=O)[C@H](CC(C)C)NC(=O)[C@H](Cc1ccccc1)NC(=O)[C@H](CCC(=O)O)NC(=O)[C@H](C)NC(=O)[C@H](CC(C)C)NC(=O)[C@H](CCCNC(=N)N)NC(=O)[C@H](CCC(N)=O)NC(=O)[C@@H](NC(=O)[C@H](C)NC(=O)[C@@H]1CSSC[C@H](NC(=O)[C@H](CCCCN)NC(=O)CC[C@H](NC(=O)CC[C@H](NC(=O)CCCCCCCCCCCCCCCCCCC(=O)O)C(=O)O)C(=O)O)C(=O)N[C@@H](CC(N)=O)C(=O)N[C@@H]([C@@H](C)O)C(=O)N[C@@H](C)C(=O)N[C@@H]([C@@H](C)O)C(=O)N1)[C@@H](C)O)C(=O)N1CCC[C@H]1C(=O)N[C@@H](CO)C(=O)N[C@@H](CO)C(=O)N[C@H](C(=O)N[C@@H](CC(N)=O)C(=O)N[C@H](C(=O)NCC(=O)N[C@@H](CO)C(=O)N[C@@H](CC(N)=O)C(=O)N[C@H](C(=O)N[C@@H](Cc1ccc(O)cc1)C(N)=O)[C@@H](C)O)C(C)C)[C@@H](C)O, Derivative of human amylin; also called compound 15)
